Results taken from publication PMC9303389, “On the stability of stalled RNA polymerase and its removal by RapA” (Nucleic Acids Research, 2022).

Substrate: Nc1ncnc2c1ncn2[C@@H]1O[C@H](COP(=O)(O)OP(=O)(O)OP(=O)(O)O)[C@@H](O)[C@H]1O
Experiment: single-molecule magnetic trapping, stalled RNAP dissociation lifetime versus [ATP]
Format: biochemical, Escherichia coli
Conditions: saturating RapA, RNAP stalled at +20 on positively supercoiled DNA, 0.3 pN, 200 μM GTP and UTP, 8 mM MgCl2, pH 8.0, 34°C, kcat is RNAP dissociation rate at saturating RapA and ATP, not ATP hydrolysis

B1: RapA-RNAP complex (Escherichia coli K-12) (protein)
chain: PFTLGQRWISDTESELGLGTVVAVDARTVTLLFPSTGENRLYARSDSPVTRVMFNPGDTITSHDGWQMQVEEVKEENGLLTYIGTRLDTEESGVALREVFLDSKLVFSKPQDRLFAGQIDRMDRFALRYRARKYSSEQFRMPYSGLRGQRTSLIPHQLNIAHDVGRRHAPRVLLADEVGLGKTIEAGMILHQQLLSGAAERVLIIVPETLQHQWLVEMLRRFNLRFALFDDERYAEAQHDAYNPFDTEQLVICSLDFARRSKQRLEHLCEAEWDLLVVDEAHHLVWSEDAPSREYQAIEQLAEHVPGVLLLTATPEQLGMESHFARLRLLDPNRFHDFAQFVEEQKNYRPVADAVAMLLAGNKLSNDELNMLGEMIGEQDIEPLLQAANSDSEDAQSARQELVSMLMDRHGTSRVLFRNTRNGVKGFPKRELHTIKLPLPTQYQTAIKVSGIMGARKSAEDRARDMLYPERIYQEFEGDNATWWNFDPRVEWLMGYLTSHRSQKVLVICAKAATALQLEQVLREREGIRAAVFHEGMSIIERDRAAAWFAEEDTGAQVLLCSEIGSEGRNFQFASHMVMFDLPFNPDLLEQRIGRLDRIGQAHDIQIHVPYLEKTAQSVLVRWYHEGLDAFEHTCPTGRTIYDSVYNDLINYLASPDQTEGFDDLIKNCREQHEALKAQLEQGRDRLLEIHSNGGEKAQALAESIEEQDDDTNLIAFAMNLFDIIGINQDDRGDNMIVLTPSDHMLVPDFPGLSEDGITITFDREVALAREDAQFITWEHPLIRNGLDLILSGDTGSSTISLLKNKALPVGTLLVELIYVVEAQAPKQLQLNRFLPPTPVRMLLDKNGNNLAAQVEFETFNRQLNAVNRHTGSKLVNAVQQDVHAILQLGEAQIEKSARALIDAARNEADEKLSAELSRLEALRAVNPNIRDDELTAIESNRQQVMESLDQAGWRLDALRLIVVTHQ
notes: full-length RapA, N-terminal His6 tag (pQE80L, expressed in BL21(DE3)), 110 kDa; RNAP core saturated with sigma70 (rpoD) for initiation, then stalled as elongation complex on DNA; with DNA-directed RNA polymerase subunit alpha; DNA-directed RNA polymerase subunit beta; DNA-directed RNA polymerase subunit beta'; DNA-directed RNA polymerase subunit omega
  Km: 160 ± 35 µM
  kcat: 1.1 × 10^–3 ± 0.5 × 10^–5 s^–1
